# In patent US6596319B2, “Immunomodulating compositions for treatment of immune system disorders” (Lorus Therapeutics Inc., priority 2001, dated 2003):
# Like-named read-outs stand apart in the source and are kept apart here.
# B1: Monocyte-CSF: monocyte colony stimulating factor (protein, UniProt P09603 33-554, looked up)
# Macrophage colony-stimulating …: EEVSEYCSHMIGSGHLQSLQRLIDSQMETSCQITFEFVDQEQLKDPVCYLKKAFLLVQDIMEDTMRFRDNTPNAIAIVQLQELSLRLKSCFTKDYEEHDKACVRTFYETPLQLLEKVKNVFNETKNLLDKDWNIFSKNCNNSFAECSSQDVVTKPDCNCLYPKAIPSSDPASVSPHQPLAPSMAPVAGLTWEDSEGTEGSSLLPGEQPLHTVDPGSAKQRPPRSTCQSFEPPETPVVKDSTIGGSPQPRPSVGAFNPGMEDILDSAMGTNWVPEEASGEASEIPVPQGTELSPSRPGGGSMQTEPARPSNFLSASSPLPASAKGQQPADVTGTALPRVGPVRPTGQDWNHTPQKTDHPSALLRDPPEPGSPRISSLRPQGLSNPSTLSAQPQLSRSHSSGSVLPLGELEGRRSTRDRRSPAEPEGGPASEGAARPLPRFNSVPLTDTGHERQSEGSFSPQLQESVFHLLVPSVILVLLAVGGLLFYRWRRRSHQEPQRADSPLEQPEGSPLTQDDRQVELPV
# How the values were obtained:
# Chang hepatoma cells [1] = experiment: Monocyte/Macrophage Cytotoxicity Assay to cell line (51Cr release); settings: peripheral blood monocytes from cancer patients; activator + Indomethacin (up to 5 ng/ml)
# peritoneal macrophages [2] = experiment: In vitro stimulation of protease peptone peritoneal macrophages: NO (Greiss reagent); format: cell-based, C57BL/6 mice; settings: stimulant alone
# Method: (§1) Peritoneal macrophages were harvested from C57BL/6 mice 72 hours after intraperitoneal injection of 1.5 ml of 4% protease peptone. The macrophages were then stimulated in vitro with medium alone, 50 ng LPS, or VIRULIZIN™. Measurements of the stimulation was done with respect to TNF (by ELISA) and NO (by spectrophotometric assay using the Greiss reagent) levels in duplicate experiments. Standard error of the mean between duplicate experiments was less than 10%. […] Nitric oxide production was zero.
# In vitro synergy of Virulizin™ with LPS for nitric oxide (NO) was addressed in the same procedure as above, except NO was determined in the supernatant of the treated macrophages. As above, the assay for NO is spectrophotometric and uses a Greiss reagent. As noted in the table above, LPS causes some release of NO (9 μm). VIRULIZIN™ in synergy with LPS induces a marked increase in NO production (13-27 μm) to dilutions of 1:40.
# In vitro synergy of Virulizin™ with IFN-γ for NO release was studied, using the same peritoneal mouse macrophages derived from C57BL/6 mice treated as above. The data are included in the table above concerning “Synergistic Combinations.” As shown, LPS and IFN-γ alone each enhanced NO production (9 and 7 μm, respectively). VIRULIZIN™ added to IFN-γ induced a marked increase in NO production (47-57 μm) that almost equaled the combination of LPS and IFN-γ (74 μM). […]
# peritoneal macrophages [3] = experiment: NO release from macrophages harvested from treated mice; format: in vivo, C57BL/6 mice; settings: mice injected with nothing; in vitro stimulant IFN-γ
# Method: (§2) In vivo production of TNF-α over 72 hours was studied on macrophages harvested from C57BL/6 mice that, prior to harvest, were treated with nothing, injected intraperitoneally 72 hours previously with 1.5 and 4% protease peptone, or injected intraperitoneally 72, 48, or 24 hours previously with 1.0 ml Virulizin™ diluted 1:10 in PBS. The macrophage monolayers were treated in vitro for 24 hours with IFN-γ (50 μ/ml), LPS only (5 ng/ml), or the combination thereof. TNF and NO were determined as recited above.
# In vivo production of NO over 72 hrs was studied with macrophage cells and tests under the same conditions described above with respect to TNF-α production. There was a small spontaneous release of NO measured at 24 and 48 hrs after intraperitoneal injection of VIRULIZIN™ (hereinafter IP Virulizin™). […] The harvested macrophages that had received IP VIRULIZIN™ 72 hrs before responded no differently than macrophages that had no VIRULIZIN™ pretreatment. […] The maximum response was with macrophages pretreated with VIRULIZIN™ 48 hrs before harvesting and testing.
# peritoneal macrophages [4] = experiment: TNF release from macrophages harvested from treated mice; format: in vivo, C57BL/6 mice; settings: mice injected with nothing; in vitro stimulant IFN-γ, 24 hours
# Method: as §2
# As described, the release of TNF-α from macrophages was examined in the absence of a stimulus or with IFN-γ, LPS, or LPS/IFN-γ after 24 hrs in vitro culture. […] Likewise, there was a synergistic effect of LPS and IFN-γ on harvested macrophages that were stimulated 24 and 48 hrs but not 72 hrs before testing.
# peritoneal macrophages [5] = experiment: In vitro stimulation of protease peptone peritoneal macrophages: TNF (ELISA); format: cell-based, C57BL/6 mice; settings: stimulant alone; 24 hours of in vitro culture
# Method: as §1
# In vitro synergy of Virulizin™ with LPS for TNF-α release was also addressed. Peritoneal macrophages were harvested from C57BL/6 mice after the same aforementioned treatment. The macrophages were then stimulated with 50 ng LPS alone or LPS with different dilutions of VIRULIZIN™. As above, TNF was determined via ELISA. As noted in Table XIX, LPS alone induces about 2900 pg/ml of TNF-α release from mouse peritoneal macrophages in vitro compared to 262 pg/ml for medium. When LPS is combined with VIRULIZIN™, there is about an 800 pg/ml increase in TNF-alpha release at dilutions of VIRULIZIN™ 1:5 and 1:10 and enhanced release to at least 1:40.
# In vitro synergy of Virulizin™ with IFN-γ for TNF-α release was studied, using the same peritoneal mouse macrophages derived from C57BL/6 mice treated as above. […] The same macrophages stimulated with either LPS or IFN-γ release almost 3000 pg/ml of TNF-α. […]
# Chang hepatoma cells [6] = system: Chang hepatoma cells
# Method: This procedure has been named the “Monocyte/Macrophage Cytotoxicity Assay to Cell Lines and Autologous Tumor Cells,” or “Cytotoxicity Assay” for short.
# The method requires isolation of monocytes/macrophages phages, which is accomplished as follows: Venous blood is collected aseptically in heparinized Vacutainer tubes. Sterile preservative-free heparin is added to a final concentration of 20 units/ml. The blood is diluted 3:1 in Hanks balanced salt solution (HBSS), layered onto lymphocyte separation medium and centrifuged to obtain a band of peripheral blood mononuclear cells (PBMNs). After centrifugation, the mononuclear cell layer is recovered from the interface, washed twice in medium (medium is Roswell Park Memorial Institute [RPMI] 1640 media supplemented with 10% heat-inactivated fetal bovine serum, 50 units/ml penicillin, and 50 μg/ml streptomycin) and monocytes are enumerated by latex ingestion. Monocytes are isolated by adherence in 96-well plastic plates (for 2 hours at 37° C., followed by two cycles of washing with medium). […]
# For studies using a standard cell line, ^51Cr (chromium) labelled Chang hepatoma cells are used because this cell line is insensitive to natural killer cell cytotoxicity. […] After 24 hours, supernatants are collected and ^51Cr release is quantitated. The percent specific cytotoxicity is calculated as: [formula] […]
# Method for autologous tumor cells: The method requires isolation of monocytes/macrophages phages, which is accomplished as follows: Venous blood is collected aseptically in heparinized Vacutainer tubes. Sterile preservative-free heparin is added to a final concentration of 20 units/ml. The blood is diluted 3:1 in Hanks balanced salt solution (HBSS), layered onto lymphocyte separation medium and centrifuged to obtain a band of peripheral blood mononuclear cells (PBMNs). After centrifugation, the mononuclear cell layer is recovered from the interface, washed twice in medium (medium is Roswell Park Memorial Institute [RPMI] 1640 media supplemented with 10% heat-inactivated fetal bovine serum, 50 units/ml penicillin, and 50 μg/ml streptomycin) and monocytes are enumerated by latex ingestion. Monocytes are isolated by adherence in 96-well plastic plates (for 2 hours at 37° C., followed by two cycles of washing with medium). Adherent cells are estimated to be greater than 90% monocytes. […] The tumor cells are maintained in medium in which endotoxin concentration is guaranteed by the manufacturer to be low and is non-stimulatory in the assay.
# For studies using autologous tumor cells, these cells are obtained from surgical biopsies, labelled with ^51C, and used in the same way as the hepatoma cells described above. […]
molecule,measurement,setting,value
GM-CSF: granulocyte macrophage colony stimulating factor,% Cytotoxicity,Chang hepatoma cells [1],17.8 ± 8%
IFN-γ: gamma interferon,NO production,peritoneal macrophages [2],7 μm
same,NO,peritoneal macrophages [3],25.8 ± 1.6 µM
same,TNF,peritoneal macrophages [4],402 pg/mL
same,TNF-α release,peritoneal macrophages [5],~3000 pg/mL
Interleukin-12: interleukin-12,% Tumor Cytotoxicity (E/T = 15/1),autologous tumor cells,11%
B1,% Tumor Cytotoxicity (E/T = 15/1),autologous tumor cells,3%
same,% Cytotoxicity,Chang hepatoma cells [6],14.31 ± 3%
